Experimental data reported in paper PMC10397247.
Each block holds one binder with its values, some of them ahead of it.

How the values were obtained:
Test in all cases: two-hybrid library CCmax;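 note: natural log of median RNA to DNA barcode read ratio; higher means stronger binding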
[1] = biological target: T1, 4H953-AA
T1 chain: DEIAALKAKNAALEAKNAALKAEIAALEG

[2] = biological target: T2, 4H967-AA; details: mean of both orientations
T2 chain: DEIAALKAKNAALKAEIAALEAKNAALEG

[3] = biological target: T3, 4H2389-AA
T3 chain: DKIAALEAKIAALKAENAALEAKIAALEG

[4] = biological target: T4, 4H2438-AA; details: mean of both orientations
T4 chain: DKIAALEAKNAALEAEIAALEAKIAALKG

[5] = biological target: T5, 4H2473-AA; details: mean of both orientations
T5 chain: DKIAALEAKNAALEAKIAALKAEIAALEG

[6] = biological target: T6, 4H2649-AA; details: mean of both orientations
T6 chain: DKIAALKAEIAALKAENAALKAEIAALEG

[7] = biological target: T7, 4H2698-AA; details: mean of both orientations
T7 chain: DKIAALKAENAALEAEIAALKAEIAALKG

[8] = biological target: T8, 4H2725-AA; details: mean of both orientations
T8 chain: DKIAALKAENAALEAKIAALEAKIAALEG

[9] = biological target: T9, 4H2865-AA; details: mean of both orientations
T9 chain: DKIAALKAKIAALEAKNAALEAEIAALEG

[10] = biological target: T10, 4H3009-AA; details: mean of both orientations
T10 chain: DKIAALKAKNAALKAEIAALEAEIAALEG

[11] = biological target: T11, 4H3016-AA; details: mean of both orientations
T11 chain: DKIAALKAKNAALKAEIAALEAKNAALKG

[12] = biological target: T12, 4H310-AA; details: mean of both orientations
T12 chain: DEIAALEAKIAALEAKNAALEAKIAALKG

[13] = biological target: T13, 4H3120-AA; details: mean of both orientations
T13 chain: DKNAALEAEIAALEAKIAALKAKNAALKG

[14] = biological target: T14, 4H3130-AA; details: mean of both orientations
T14 chain: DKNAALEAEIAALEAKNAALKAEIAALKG

[15] = biological target: T15, 4H3165-AA; details: mean of both orientations
T15 chain: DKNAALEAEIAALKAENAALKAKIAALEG

[16] = biological target: T16, 4H3381-AA; details: mean of both orientations
T16 chain: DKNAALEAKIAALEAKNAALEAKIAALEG

[17] = biological target: T17, 4H3395-AA; details: mean of both orientations
T17 chain: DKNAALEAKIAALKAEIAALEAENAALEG

[18] = biological target: T18, 4H3410-AA; details: mean of both orientations
T18 chain: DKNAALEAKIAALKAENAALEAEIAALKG

[19] = biological target: T19, 4H3590-AA; details: mean of both orientations
T19 chain: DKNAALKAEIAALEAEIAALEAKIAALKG

[20] = biological target: T20, 4H3697-AA; details: mean of both orientations
T20 chain: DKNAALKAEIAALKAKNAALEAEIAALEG

[21] = biological target: T21, 4H3753-AA; details: mean of both orientations
T21 chain: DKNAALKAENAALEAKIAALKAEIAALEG

[22] = biological target: T22, 4H3865-AA; details: mean of both orientations
T22 chain: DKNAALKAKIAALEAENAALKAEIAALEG

[23] = biological target: T23, 4H458-AA; details: mean of both orientations
T23 chain: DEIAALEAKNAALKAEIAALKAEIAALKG

[24] = biological target: T24, 4H485-AA
T24 chain: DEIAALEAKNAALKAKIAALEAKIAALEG

[25] = biological target: T25, 4H536-AA; details: mean of both orientations
T25 chain: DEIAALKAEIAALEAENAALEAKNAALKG

[26] = biological target: T26, 4H570-AA; details: mean of both orientations
T26 chain: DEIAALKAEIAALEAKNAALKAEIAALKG

[27] = biological target: T27, 4H629-AA; details: mean of both orientations
T27 chain: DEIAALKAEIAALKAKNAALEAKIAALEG

[28] = biological target: T28, 4H710-AA; details: mean of both orientations
T28 chain: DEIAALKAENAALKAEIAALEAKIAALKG

[29] = biological target: T29, 4H745-AA; details: mean of both orientations
T29 chain: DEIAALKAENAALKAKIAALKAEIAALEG

[30] = biological target: T30, 4H797-AA; details: mean of both orientations
T30 chain: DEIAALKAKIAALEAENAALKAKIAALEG

[31] = biological target: T31, 4H850-AA; details: mean of both orientations
T31 chain: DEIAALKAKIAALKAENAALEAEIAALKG

[32] = biological target: T32, 4H891-AA; details: mean of both orientations
T32 chain: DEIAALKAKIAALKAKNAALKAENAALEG

[33] = biological target: T33, 4H909-AA; details: mean of both orientations
T33 chain: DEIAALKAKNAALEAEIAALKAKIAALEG

[34] = biological target: T34, 4H930-AA; details: mean of both orientations
T34 chain: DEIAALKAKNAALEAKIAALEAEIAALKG

[35] = biological target: T35, 4H94-AA; details: mean of both orientations
T35 chain: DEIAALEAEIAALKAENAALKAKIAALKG

[36] = biological target: T36, 4H406-AA
T36 chain: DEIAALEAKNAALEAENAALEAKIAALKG

[37] = biological target: T37, 4H452-AA; details: mean of both orientations
T37 chain: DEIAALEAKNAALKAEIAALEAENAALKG

[38] = biological target: T38, 4H56-AA; details: mean of both orientations
T38 chain: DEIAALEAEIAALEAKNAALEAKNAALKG

[39] = biological target: T39, 4H688-AA; details: mean of both orientations
T39 chain: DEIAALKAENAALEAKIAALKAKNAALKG

[40] = biological target: T40, 4H963-AA; details: mean of both orientations
T40 chain: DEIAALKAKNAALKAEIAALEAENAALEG

[41] = biological target: T41, 4H_APH; details: mean of both orientations
T41 chain: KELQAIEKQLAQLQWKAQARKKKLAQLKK

[42] = biological target: T42, 4H_BCR; details: mean of both orientations
T42 chain: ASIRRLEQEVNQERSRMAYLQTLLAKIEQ

[43] = biological target: 4H_GCN4
Sequence of 4H_GCN4 (chain, as listed by the source): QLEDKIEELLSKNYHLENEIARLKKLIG

[44] = biological target: GCN2_T

interaction score [1]: -1.02
interaction score [2]: -1.73
B1: 4H953-AA (peptide)
chain: DEIAALKAKNAALEAKNAALKAEIAALEG

interaction score [3]: 2.02
interaction score [4]: -0.27
interaction score [5]: -1.3
interaction score [6]: 1.07
interaction score [7]: -0.843
interaction score [8]: -0.942
interaction score [9]: 1.02
interaction score [10]: 1.53
interaction score [11]: 0.227
interaction score [12]: 1.8
interaction score [13]: -0.79
interaction score [14]: 1.81
interaction score [15]: 0.858
interaction score [16]: -0.842
interaction score [17]: -1.54
interaction score [18]: -1.2
interaction score [19]: -0.0915
interaction score [20]: -1.74
interaction score [21]: -1.26
interaction score [22]: -0.601
interaction score [23]: -0.364
interaction score [24]: 0.153
interaction score [25]: -0.282
interaction score [26]: 1.65
interaction score [27]: -0.106
interaction score [28]: 0.392
interaction score [29]: -1.25
interaction score [30]: 1.3
interaction score [31]: -0.804
interaction score [32]: -0.959
interaction score [33]: -1.35
interaction score [34]: -0.305
interaction score [35]: 1.99
B2: 4H2389-AA (peptide)
chain: DKIAALEAKIAALKAENAALEAKIAALEG

interaction score [36]: -0.644
interaction score [37]: -0.548
interaction score [38]: -1.47
interaction score [39]: -1.54
interaction score [40]: -1.6
interaction score [41]: -1.29
interaction score [42]: -2.11
interaction score [43]: -1.67
interaction score [44]: -1.43
B3: 4H406-AA (peptide)
chain: DEIAALEAKNAALEAENAALEAKIAALKG
